Assay results reported in US20200292553A1, “COMPOSITION FOR PREDICTING OR DIAGNOSING LIVER DISEASE, AND LIVER DISEASE PREDICTION OR DIAGNOSIS METHOD USING SAME” (SEOUL NATIONAL UNIVERSITY HOSPITAL, priority 2017, published 2020).

B1: rhGDF15: Recombinant human GDF15 (rhGDF15; R&D Systems; 957-GD-025), growth differentiation factor 15 protein (protein, listed as Homo sapiens)
chain: ARARNGDHCPLGPGRCCRLHTVRASLEDLGWADWVLSPREVQVTMCIGACPSQFRAANMHAQIKTSLHRLKPDTVPAPCCVPASYNPMVLIQKTDTGVSLQTYDDLLAKDCHCI

Columns and labels:
[1] = system: Kupffer cells; assay: GDF15 mRNA expression after palmitate treatment, Kupffer cells; type: cell-based; conditions: for increase in GDF15 mRNA expression: after 6 hours
Experimental: Primary hepatic cells were isolated and differentiated into hepatocytes, HSCs, Kupffer cells, and liver sinusoidal endothelial cells (LSECs). Kupffer cells are macrophages present in the liver, and are known to play an essential role in the initiation of inflammation. To distinguish Kupffer cells and LSECs, magnetic-activated cell sorting (MACS) was performed using the MiniMACS™ separator system (MiltenyiBiotec, Seoul, Korea). The purity of LSECs was evaluated by fluorescence-activated cell sorting using anti-PE antibody (purity of 90% or higher). Primary cells were cultured in 1.5 mL of a serum-free medium for 4 hours, and treated with 5(w/w)% of bovine serum albumin (BSA, control), 200 μM palmitate/5(w/w)% BSA solution, and 500 μM palmitate/5(w/w)% BSA, respectively. After 3 and 6 hours, cells were collected and further analyzed. Reverse-transcription polymerase chain reaction (RT-PCR) and real-time PCR were performed to assess the expression of GDF15 mRNA after palmitate treatment.

[2] = system: primary hepatocytes; assay: rhGDF15 treatment of primary hepatocytes, immunoblotting; type: cell-based, mouse; conditions: FIG. 4D
Experimental: (§1) Recombinant human GDF15 (rhGDF15; R&D Systems; 957-GD-025) was added to LX-2 cells (human hepatic stellate cells, KAIST), cultured in the presence of 100 ng/mL GDF15 and 10 ng/mL TGF-β, and primary hepatocytes, directly isolated from the mouse liver, at […] per 3×10^5 cells/6 wells. The levels of fibrosis markers, such as alpha-smooth muscle actin (α-SMA) and collagen 1, were assessed by immunoblotting, immunohistochemistry, and immunofluorescence staining.

[3] = system: LX-2 cells (human hepatic stellate cells); assay: rhGDF15 treatment of LX-2 cells, fibrosis markers by immunoblotting and immunofluorescence; type: cell-based
Experimental: as §1

| Molecule | increase in GDF15 mRNA expression ([1]; 200 μM, P=0.009, FIG. 5B) [fold] | increase in GDF15 mRNA expression level ([1]; 500 μM, after 3 hours, P=0.004, FIG. 5A) | increase in GDF15 mRNA expression ([1]; 500 μM, P=0.032, FIG. 5B) [fold] | phosphorylation of SMAD2 and SMAD3 [2] | cell apoptosis ([3]; LX-2 cells, FIG. 4A) | expression of fibrosis markers α-SMA and collagen 1 ([3]; LX-2 cells, immunoblotting, FIG. 4A) | α-SMA expression, immunofluorescent staining ([3]; LX-2 cells, treatment for 12 hours, FIG. 4B) | acute stimulatory effect on hepatocytes ([3]; after 12 hours) | time to increase of α-SMA level after treatment ([3]; after GDF15 treatment) [h] | time to induction of SMAD phosphorylation after treatment ([3]; after GDF15 treatment) [h] | phosphorylation of SMAD2 and SMAD3 ([3]; printed as human hepatocytes, FIG. 4C (LX-2 cells)) |
| --- | --- | --- | --- | --- | --- | --- | --- | --- | --- | --- | --- |
| CCCCCCCCCCCCCCCC(=O)O [palmate, palmitate] | 2.5 | approximately 2 fold | 1.5 | – | – | – | – | – | – | – | – |
| B1 | – | – | – | upregulating | not influenced | increased | high expression | remarkably reduced | ≤ 12 | ≤ 3 | increasing |
